Consider 2 molecules from article PMC8774819.

The data set deals with BES1-MBP (Arabidopsis thaliana, UniProt Q9LN63 1-335). The data set can be described thus: EMSA. For orientation: In EMSA bound probe runs differently from free probe, usually more slowly.
Chain of BES1-MBP (Q9LN63 whole entry): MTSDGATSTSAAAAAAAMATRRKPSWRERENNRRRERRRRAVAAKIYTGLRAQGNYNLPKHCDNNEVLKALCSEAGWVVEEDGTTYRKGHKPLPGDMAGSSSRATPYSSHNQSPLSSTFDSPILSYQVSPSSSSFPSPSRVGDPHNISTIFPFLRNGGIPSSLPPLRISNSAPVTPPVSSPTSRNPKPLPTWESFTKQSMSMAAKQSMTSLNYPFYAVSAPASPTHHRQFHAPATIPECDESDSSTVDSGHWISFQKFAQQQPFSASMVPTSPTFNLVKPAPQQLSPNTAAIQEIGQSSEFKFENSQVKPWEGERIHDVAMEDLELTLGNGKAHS

B1: WOX4 promoter probe a (dsDNA)
DNA 1: CCATCTGATCACAGCTTGACACACGAATCAGGTTATCCATCGTGTGA
DNA 2: TCACACGATGGATAACCTGATTCGTGTGTCAAGCTGTGATCAGATGG
In the case of B1, the binding result was “binds”.

B2: WOX4 promoter probe c (dsDNA)
DNA 1: GTAACGAGAAAGGCATGCATAGCATTTGCTAGTTTTAACATATAGCA
DNA 2: TGCTATATGTTAAAACTAGCAAATGCTATGCATGCCTTTCTCGTTAC
As for B2, the binding result is recorded as “binds”.
